This is an account of results in patent US20110009311A1 (US Dept. of Health and Human Services, published 2011).

First the molecules themselves.
B1: peptide 683 (peptide)
peptide: QGVLQNVR
B2: peptide 690 (peptide)
peptide: FQGVLQNVAFVF
notes: also called control peptide 690
B3: thrombospondin-1 (TSP1), calcium replete, purified from human platelets (ligand)
chain: not shown
B4: murine laminin-1 peptide GD6 (peptide)
peptide: KQNCLSSRASFRGCVRNLRLSR
B5: TSP1 peptide 678 (peptide)
peptide: FQGVLQNVRFVF
B6: MBP-invasin fusion protein (ligand)
chain: AVIGDGAPANGKTAITVEFTVADFEGKPLAGQEVVITTNNGALPNKITEKTDANGVARIALTNTTDGVTVVTAEVEGQRQSVDTHFVKGTIAADKSTLAAVPTSIIADGLMASTITLELKDTYGDPQAGANVAFDTTLGNMGVITDHNDGTYSAPLTSTTLGVATVTVKVDGAAFSVPSVTVNFTADPIPDAGRSSFTVSTPDILADGTMSSTLSFVPVDKNGHFISGMQGLSFTQNGVPVSISPITEQPDSYTATVVGNTAGDVTITPQVDTLILSTLQKKISLFPVPTLTGILVNGQNFATDKGFPKTIFKNATFQLQMDNDVANNTQYEWSSSFTPNVSVNDQGQVTITYQTYSEVAVTAKSKKFPSYSVSYRFYPNRWIYDGGTSLVSSLEASRQCQGSDMSAVLESSRATNGTRAPDGTLWGEWGSLTAYSSDWQSGEYWVKKTSTDFETMNMDTGALVQGPAYLAFPLCALAI
B7: peptide 702 (peptide)
peptide: FQGVLQNVKFVF
B8: peptide 698 (peptide)
peptide: FQGVLNNVRFVF
B9: peptide 688 (peptide)
peptide: VLQNVRFVF
B10: peptide 682 (peptide)
peptide: FQGVLQNVRF
B11: peptide 719 (peptide)
peptide: FQGVLQNLRFVF
B12: TSP1 peptide 701 (peptide)
peptide: TPGQVRTLWHDP
notes: also called (part of C6)
B13: peptide 694 (peptide)
peptide: FQGVLQNVHFVF
B14: peptide 704 (peptide)
peptide: Ac-QGVLQNVRF
B15: peptide 685 (peptide)
peptide: QGVLQNVRFVF
B16: peptide 693 (peptide)
peptide: FQGVLQNVRFVA
B17: peptide 681 (peptide)
peptide: Ac-LQNVRF-NH2
B18: laminin peptide 679 (peptide)
peptide: FRGCVRNLRLSR
B19: peptide 692 (peptide)
peptide: FQGVLQNVRAVF
B20: peptide 696 (peptide)
peptide: FAGVLQNVRFVF
B21: peptide 687 (peptide)
peptide: FQGVLANVRFVF
B22: peptide 718 (peptide)
peptide: FQGVLQDVRFVF
B23: peptide 697 (peptide)
peptide: AQGVLQNVRFVF
B24: peptide 717 (peptide)
peptide: FQGVLQQVRFVF
B25: peptide 705 (peptide)
peptide: FQGVLQSVRFVF
B26: peptide 684 (peptide)
peptide: LQNVRFVF
B27: peptide 695 (peptide)
peptide: FQGVAQNVRFVF

Where no end group is shown, it is not given here. A value given as a limit tells only on which side of the number the result lay.

T1 sequence (P26006 33-1051, chain 1 of 2): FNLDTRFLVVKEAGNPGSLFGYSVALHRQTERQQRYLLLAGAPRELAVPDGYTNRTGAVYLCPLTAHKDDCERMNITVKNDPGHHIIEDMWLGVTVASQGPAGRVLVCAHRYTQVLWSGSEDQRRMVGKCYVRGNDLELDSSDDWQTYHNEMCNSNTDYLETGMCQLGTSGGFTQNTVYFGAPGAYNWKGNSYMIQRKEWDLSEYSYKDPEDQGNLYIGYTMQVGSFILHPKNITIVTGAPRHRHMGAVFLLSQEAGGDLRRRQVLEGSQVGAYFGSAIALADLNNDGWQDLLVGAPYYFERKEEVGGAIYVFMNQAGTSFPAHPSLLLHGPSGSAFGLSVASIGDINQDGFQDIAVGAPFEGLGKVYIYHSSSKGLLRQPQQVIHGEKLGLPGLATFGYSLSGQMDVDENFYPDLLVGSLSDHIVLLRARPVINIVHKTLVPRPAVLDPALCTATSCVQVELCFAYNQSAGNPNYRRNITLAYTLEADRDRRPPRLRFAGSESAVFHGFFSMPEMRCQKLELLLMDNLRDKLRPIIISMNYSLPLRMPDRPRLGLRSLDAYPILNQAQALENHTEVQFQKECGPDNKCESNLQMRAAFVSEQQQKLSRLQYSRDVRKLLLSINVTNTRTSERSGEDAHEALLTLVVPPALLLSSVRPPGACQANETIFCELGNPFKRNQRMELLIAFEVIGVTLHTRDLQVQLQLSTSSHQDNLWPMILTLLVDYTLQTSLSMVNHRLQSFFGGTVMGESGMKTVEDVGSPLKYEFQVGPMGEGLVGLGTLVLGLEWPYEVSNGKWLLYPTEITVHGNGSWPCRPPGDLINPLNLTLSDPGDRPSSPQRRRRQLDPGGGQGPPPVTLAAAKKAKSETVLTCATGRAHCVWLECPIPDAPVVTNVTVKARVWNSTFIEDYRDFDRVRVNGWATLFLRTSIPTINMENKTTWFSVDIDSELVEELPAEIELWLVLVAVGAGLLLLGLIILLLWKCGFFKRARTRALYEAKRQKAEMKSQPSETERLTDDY
T1 sequence (P05556 21-798, chain 2 of 2): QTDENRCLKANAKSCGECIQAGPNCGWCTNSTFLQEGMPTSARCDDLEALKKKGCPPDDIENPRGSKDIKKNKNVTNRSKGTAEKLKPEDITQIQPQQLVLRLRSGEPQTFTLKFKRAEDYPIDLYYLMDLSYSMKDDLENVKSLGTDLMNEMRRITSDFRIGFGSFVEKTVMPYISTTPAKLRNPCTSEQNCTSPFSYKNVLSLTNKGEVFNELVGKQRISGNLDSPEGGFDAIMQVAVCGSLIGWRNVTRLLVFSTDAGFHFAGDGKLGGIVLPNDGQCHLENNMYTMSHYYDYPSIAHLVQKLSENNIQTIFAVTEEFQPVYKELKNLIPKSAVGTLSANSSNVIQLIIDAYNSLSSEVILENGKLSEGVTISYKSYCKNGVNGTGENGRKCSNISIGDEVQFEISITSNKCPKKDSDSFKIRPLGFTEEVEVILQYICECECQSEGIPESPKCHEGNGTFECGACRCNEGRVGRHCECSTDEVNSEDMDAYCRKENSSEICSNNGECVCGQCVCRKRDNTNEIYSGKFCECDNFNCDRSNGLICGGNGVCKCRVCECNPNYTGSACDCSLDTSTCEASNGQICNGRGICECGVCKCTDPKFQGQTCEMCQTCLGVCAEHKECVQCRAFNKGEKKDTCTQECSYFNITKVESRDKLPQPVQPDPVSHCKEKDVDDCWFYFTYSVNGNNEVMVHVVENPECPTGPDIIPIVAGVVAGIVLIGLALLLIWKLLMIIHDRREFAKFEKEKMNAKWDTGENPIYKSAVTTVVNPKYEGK

The first assay concerns the target T1, α3β1 integrin (endogenous on human cells: MDA-MB-435 breast carcinoma, HUVEC, HDME, OH-1 SCLC) (human, UniProt P26006 33-1051; P05556 21-798).
T1 construct: whole, on cells; never purified, always the integrin on whole cells in adhesion, spreading or proliferation assays; also called alpha3 beta1 integrin
In words: soluble peptide, inhibition of MDA-MB-435 cell adhesion to immobilized peptide 678.
As for B1, the binding result is recorded as “no binding (tested: >300 µM)”.

The target in the next assay is T1, α3β1 integrin (endogenous on human …). In words: direct MDA-MB-435 cell adhesion to adsorbed peptide (FIG. 8).
As for B2, the binding result is listed as “no binding (tested: adsorbed at 10 µM)”.

The next assay has the same target. In words: cell-based or functional assay.
As to B3, the “IC50, inhibition of OH-1 SCLC cell proliferation by soluble protein” value worked out at 0.04 µM.
In the case of B4, the “IC50, inhibition of MDA-MB-435 cell adhesion to peptide 678, GD6 or TSP1 by the soluble laminin peptide (data not shown)” value amounted to 700 µM.
As for B5, the “IC50, inhibition of OH-1 SCLC cell proliferation by soluble peptide” value is 6 µM.
As to B6, the “IC50, inhibition of OH-1 SCLC cell proliferation by soluble protein” value turned out to be 0.08 µM.

The next assay has the same target. Briefly: cell-based or functional assay. This is another data set of the same source.
As for B1, the “IC50, inhibition of MDA-MB-435 cell adhesion to immobilized peptide 678 (microscopic adhesion assay)” value (“IC50, inhibition … (microscopic adhesion assay)” below) is more than 300 µM.
B7: the “IC50, inhibition of MDA-MB-435 cell adhesion to immobilized peptide 678 (hexosaminidase method)” value (“IC50, inhibition … (hexosaminidase method)” for short) was found to be 25 µM and the “IC50, inhibition … (microscopic adhesion assay)” value was determined as 6 µM.
As to B8, the “IC50, inhibition … (microscopic adhesion assay)” value was found to be 3 µM.
Consider B9, for which the “IC50, inhibition … (microscopic adhesion assay)” value is more than 100 µM.
With B10, the “IC50, inhibition … (microscopic adhesion assay)” value was 6 µM.
In the case of B11, the “IC50, inhibition … (hexosaminidase method)” value worked out at 16 µM.
For B12, the “IC50, inhibition … (microscopic adhesion assay)” value is more than 300 µM.
As for B13, the “IC50, inhibition … (microscopic adhesion assay)” value amounted to 54 µM.
As for B14, the “IC50, inhibition … (hexosaminidase method)” value was approximately 100 µM and the “IC50, inhibition … (microscopic adhesion assay)” value was determined as 15 µM.
In the case of B15, the “IC50, inhibition … (microscopic adhesion assay)” value came to 24 µM.
The same measure, in the same setting: as for B16, the figure is 27 µM; as for B17, 500 µM.
For B18, the “IC50, inhibition … (hexosaminidase method)” value stood at 700 µM.
On to B19, for which the “IC50, inhibition … (microscopic adhesion assay)” value worked out at 18 µM.
Take B20: the “IC50, inhibition … (hexosaminidase method)” value came to 12 µM and the “IC50, inhibition … (microscopic adhesion assay)” value worked out at 1.8 µM.
For the molecule B21, the “IC50, inhibition … (microscopic adhesion assay)” value turned out to be 3 µM.
Take B5: the “IC50, inhibition … (hexosaminidase method)” value stood at 15 µM and the “IC50, inhibition … (microscopic adhesion assay)” value was 3.5 µM.
With B2, the “IC50, inhibition … (microscopic adhesion assay)” value was more than 300 µM.
As for B22, the “IC50, inhibition … (hexosaminidase method)” value stood at 12 µM.
On to B23, for which the “IC50, inhibition … (microscopic adhesion assay)” value was found to be 5 µM.
With B24, the “IC50, inhibition … (hexosaminidase method)” value came to 30 µM.
As for B25, the “IC50, inhibition … (hexosaminidase method)” value is 15 µM.
With B26, the “IC50, inhibition … (microscopic adhesion assay)” value was found to be 300 µM.
Regarding B27, the “IC50, inhibition … (microscopic adhesion assay)” value turned out to be 5 µM.

The next assay shares this target. Briefly: cell-based or functional assay. The source holds these as a separate data set.
Take B7: the “IC50 (µM), inhibition of MDA-MB-435 cell adhesion to immobilized peptide 678” value (“IC50 (µM), inhibition” for short) was determined as 6 µM.
For B13, the “IC50 (µM), inhibition” value was 54 µM.
Same read-out and setting: under B16 stands 27 µM; under B19, 18 µM.
For the molecule B20, the “IC50 (µM), inhibition” value was determined as 1.8 µM.
With B21, the “IC50 (µM), inhibition” value worked out at 3 µM.
B5: the “IC50 (µM), inhibition” value turned out to be 3.5 µM.
The same measure, in the same setting: as for B2, the figure is more than 300 µM; as for B23, 5 µM; as for B27, 5 µM.

The next assay has the same target. In words: MDA-MB-435 cell adhesion and inhibition of adhesion (FIG. 3A and results not shown).
With B12, the binding result is “no binding”.
